Test results reported in article PMC8298264, “Function of cofactor Akirin2 in the regulation of gene expression in model human neutrophil-like HL60 cells” (Bioscience Reports, 2021).

Test system: human HL60 cells
Test: SWATH-MS proteomics, differential protein representation, akirin2 KO vs WT HL60 cells
Assay type: cell-based
Conditions: sheet "Under-represented in KO"
In short: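 First, proteins from wild-type and knockout cells are digested with trypsin by FASP. Next, pooled IDA runs generate a reference ion library. Then six samples of 5 µg each are acquired by data-independent SWATH, and protein areas are normalized to the summed area of all detected proteins.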

Row | Molecule | Fold Change (akirin2 KO vs WT HL60 cells) | Log (Fold Change) (akirin2 KO vs WT HL60 cells) | Fold Change (KO vs WT HL60 cells) | Log (Fold Change) (KO vs WT HL60 cells)
1 | sp¦P47985¦UCRI_HUMAN (protein, UniProt P47985 79-274, looked up) Cytochrome b-c1 complex …: SHTDIKVPDFSEYRRLEVLDSTKSSRESSEARKGFSYLVTGVTTVGVAYAAKNAVTQFVSSMSASADVLALAKIEIKLSDIPEGKNMAFKWRGKPLFVRHRTQKEIEQEAAVELSQLRDPQHDLDRVKKPEWVILIGVCTHLGCVPIANAGDFGGYYCPCHGSHYDASGRIRLGPAPLNLEVPTYEFTSDDMVIVG | 0.2341 | -0.6306 | – | –
2 | sp¦Q9NUQ2¦PLCE_HUMAN (protein, UniProt Q9NUQ2 1-364, looked up) 1-acyl-sn-glycerol-3-phosphate …: MLLSLVLHTYSMRYLLPSVVLLGTAPTYVLAWGVWRLLSAFLPARFYQALDDRLYCVYQSMVLFFFENYTGVQILLYGDLPKNKENIIYLANHQSTVDWIVADILAIRQNALGHVRYVLKEGLKWLPLYGCYFAQHGGIYVKRSAKFNEKEMRNKLQSYVDAGTPMYLVIFPEGTRYNPEQTKVLSASQAFAAQRGLAVLKHVLTPRIKATHVAFDCMKNYLDAIYDVTVVYEGKDDGGQRRESPTMTEFLCKECPKIHIHIDRIDKKDVPEEQEHMRRWLHERFEIKDKMLIEFYESPDPERRKRFPGKSVNSKLSIKKTLPSMLILSGLTAGMLMTDAGRKLYVNTWIYGTLLGCLWVTIKA | 0.2386 | -0.6223 | – | –
3 | sp¦P25815¦S100P_HUMAN (protein, UniProt P25815 1-95, looked up) Protein S100-P: MTELETAMGMIIDVFSRYSGSEGSTQTLTKGELKVLMEKELPGFLQSGKDKDAVDKLLKDLDANGDAQVDFSEFIVFVAAITSACHKYFEKAGLK | – | – | 0.4762 | -0.3222
4 | sp¦Q9NUQ9¦CYRIB_HUMAN (protein, UniProt Q9NUQ9 2-324, looked up) CYFIP-related Rac1 interactor …: GNLLKVLTCTDLEQGPNFFLDFENAQPTESEKEIYNQVNVVLKDAEGILEDLQSYRGAGHEIREAIQHPADEKLQEKAWGAVVPLVGKLKKFYEFSQRLEAALRGLLGALTSTPYSPTQHLEREQALAKQFAEILHFTLRFDELKMTNPAIQNDFSYYRRTLSRMRINNVPAEGENEVNNELANRMSLFYAEATPMLKTLSDATTKFVSENKNLPIENTTDCLSTMASVCRVMLETPEYRSRFTNEETVSFCLRVMVGVIILYDHVHPVGAFAKTSKIDMKGCIKVLKDQPPNSVEGLLNALRYTTKHLNDETTSKQIKSMLQ | – | – | 0.4847 | -0.3146
5 | sp¦P42126¦ECI1_HUMAN (protein, UniProt P42126 42-302, looked up) Enoyl-CoA delta isomerase 1, …: FGSQRVLVEPDAGAGVAVMKFKNPPVNSLSLEFLTELVISLEKLENDKSFRGVILTSDRPGVFSAGLDLTEMCGRSPAHYAGYWKAVQELWLRLYQSNLVLVSAINGACPAGGCLVALTCDYRILADNPRYCIGLNETQLGIIAPFWLKDTLENTIGHRAAERALQLGLLFPPAEALQVGIVDQVVPEEQVQSTALSAIAQWMAIPDHARQLTKAMMRKATASRLVTQRDADVQNFVSFISKDSIQKSLQMYLERLKEEKG | – | – | 0.4682 | -0.3295
6 | sp¦Q9H7B2¦RPF2_HUMAN (protein, UniProt Q9H7B2 1-306, looked up) Ribosome production factor 2 …: MDTLDRVVKPKTKRAKRFLEKREPKLNENIKNAMLIKGGNANATVTKVLKDVYALKKPYGVLYKKKNITRPFEDQTSLEFFSKKSDCSLFMFGSHNKKRPNNLVIGRMYDYHVLDMIELGIENFVSLKDIKNSKCPEGTKPMLIFAGDDFDVTEDYRRLKSLLIDFFRGPTVSNIRLAGLEYVLHFTALNGKIYFRSYKLLLKKSGCRTPRIELEEMGPSLDLVLRRTHLASDDLYKLSMKMPKALKPKKKKNISHDTFGTTYGRIHMQKQDLSKLQTRKMKGLKKRPAERITEDHEKKSKRIKKN | – | – | 0.4816 | -0.3173
